B1: Subtilisin-chymotrypsin inhibitor-2A, P01053 (parent)
chain: MSSVEKKPEGVNTGAGDRHNLKTEWPELVGKSVEEAKKVILQDKPEAQIIVLPVGTIVTMEYRIDRVRLFVDKLDNIAQVPRVG

Variants of: B1
Conditions: Hordeum vulgare, pH 6.3, Thermal, Fluorescence, phosphate 10 mM, reversible: yes, structure 2CI2, whole UniProt chain shown; for ddG of mutation (higher = less stable): 46.6 °C

| Variant | ddG of mutation (higher = less stable) [kcal/mol] | Tm [°C] | change of melting temperature, mutant - wild type (higher = more stable) [°C] | unfolding enthalpy (van 't Hoff) [kcal/mol] |
| --- | --- | --- | --- | --- |
| V39A | 0.48 | 41.9 | -4.7 | 30 |
| K44A | – | 40.8 | -5.8 | 24.6 |
| T23A | 0.85 | 43.7 | -2.9 | – |
| I50V | -0.08 | 48 | 1.4 | 50.9 |
| I50A | 2.12 | – | – | – |
| F70L | 2.11 | 32.5 | -14.1 | 27.5 |
| K37A | 0.49 | 34 | -12.6 | 27.2 |
| E34A E35A | 0.76 | – | – | – |
| I49V | 1.11 | 39.4 | -7.2 | 27.8 |
| I77V | -0.19 | 47.7 | 1.1 | 34.6 |
| K38A | -0.23 | 41.4 | -5.2 | 34.8 |
| K38G | 0.97 | 35.8 | -10.8 | 37.6 |
| L52A | 2.37 | 37.5 | -9.1 | 42.5 |
| L52V | 0.5 | 46.1 | -0.5 | 37.3 |
| I40V | 1.3 | 31.8 | -14.8 | 26.3 |
| V54A | 0.63 | 43.8 | -2.8 | 40.5 |
| V54T | 1.03 | – | – | – |
| L28A | 2.68 | 24.1 | -22.5 | 34.6 |
| V71A | 1.95 | 29.8 | -16.8 | 33.5 |
| S32A E34A E35A | 1.67 | – | – | – |
| S32A | 0.89 | 38.2 | -8.4 | 35.4 |
| E34N | 0.7 | 42.8 | -3.8 | 36.1 |

Source: FireProtDB (doi:10.1021/bi00005a026)
